Assay results from patent US20210238260.

Biological target: Factor X (FX), P00742
Sequence (P00742 whole entry, looked up): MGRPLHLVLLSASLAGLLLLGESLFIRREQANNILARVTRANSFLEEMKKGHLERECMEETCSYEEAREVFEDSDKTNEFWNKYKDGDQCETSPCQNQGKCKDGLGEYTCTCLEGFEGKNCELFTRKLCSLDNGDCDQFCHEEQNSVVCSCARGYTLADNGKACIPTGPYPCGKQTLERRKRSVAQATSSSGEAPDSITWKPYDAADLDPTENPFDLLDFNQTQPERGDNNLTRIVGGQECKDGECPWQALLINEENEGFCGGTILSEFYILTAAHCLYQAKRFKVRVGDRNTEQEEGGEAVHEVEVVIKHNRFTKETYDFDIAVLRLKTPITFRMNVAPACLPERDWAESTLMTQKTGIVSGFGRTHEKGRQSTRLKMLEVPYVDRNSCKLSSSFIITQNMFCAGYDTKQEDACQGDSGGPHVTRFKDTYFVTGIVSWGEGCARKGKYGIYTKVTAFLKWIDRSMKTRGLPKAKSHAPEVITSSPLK

B1: FIXa-K247N/N249S/R318Y/R338E/T343R/E410N (protein)
chain 1: YNSGKLEEFVQGNLERECMEEKCSFEEAREVFENTERTTEFWKQYVDGDQCESNPCLNGGSCKDDINSYECWCPFGFEGKNCELDVTCNIKNGRCEQFCKNSADNKVVCSCTEGYRLAENQKSCEPAVPFPCGRVSVSQTSKLTR
chain 2: VVGGEDAKPGQFPWQVVLNGKVDAFCGGSIVNEKWIVTAAHCVETGVKITVVAGEHNIEETEHTEQNRSVIRIIPHHNYNAAINKYNHDIALLELDEPLVLNSYVTPICIADKEYTNIFLKFGSGYVSGWGRVFHKGYSALVLQYLRVPLVDRATCLESTKFRIYNNMFCAGFHEGGRDSCQGDSGGPHVTEVEGTSFLTGIISWGEECAMKGKYGIYTKVSRYVNWIKNKTKLT
- % of WT kcat/KM: 687%
- KM: 0.0328 µM
- kcat (s^-1) of FX activation by FIXa variant in the Xase complex (FVIIIa, PC/PS vesicles, Ca2+), fluorogenic FXa read-out: 8.8 s⁻¹
- kcat/KM for FX activation (Xase: FVIIIa, PC/PS vesicles, Ca2+): 3.2e+08 M⁻¹ s⁻¹

B2: FIXa-Y155F/K247N/N249S/R338E/T343R/E410N (protein)
chain 1: YNSGKLEEFVQGNLERECMEEKCSFEEAREVFENTERTTEFWKQYVDGDQCESNPCLNGGSCKDDINSYECWCPFGFEGKNCELDVTCNIKNGRCEQFCKNSADNKVVCSCTEGYRLAENQKSCEPAVPFPCGRVSVSQTSKLTR
chain 2: VVGGEDAKPGQFPWQVVLNGKVDAFCGGSIVNEKWIVTAAHCVETGVKITVVAGEHNIEETEHTEQNRSVIRIIPHHNYNAAINKYNHDIALLELDEPLVLNSYVTPICIADKEYTNIFLKFGSGYVSGWGRVFHKGRSALVLQYLRVPLVDRATCLESTKFRIYNNMFCAGFHEGGRDSCQGDSGGPHVTEVEGTSFLTGIISWGEECAMKGKYGIYTKVSRYVNWIKNKTKLT
- % of WT kcat/KM: 391%
- KM: 0.027 µM
- kcat (s^-1) of FX activation by FIXa variant in the Xase complex (FVIIIa, PC/PS vesicles, Ca2+), fluorogenic FXa read-out: 4.8 s⁻¹
- kcat/KM for FX activation (Xase: FVIIIa, PC/PS vesicles, Ca2+): 1.8e+08 M⁻¹ s⁻¹

B3: FIXa-K247N/N249S/R318Y/T343R/R403E/E410N (protein)
chain 1: YNSGKLEEFVQGNLERECMEEKCSFEEAREVFENTERTTEFWKQYVDGDQCESNPCLNGGSCKDDINSYECWCPFGFEGKNCELDVTCNIKNGRCEQFCKNSADNKVVCSCTEGYRLAENQKSCEPAVPFPCGRVSVSQTSKLTR
chain 2: VVGGEDAKPGQFPWQVVLNGKVDAFCGGSIVNEKWIVTAAHCVETGVKITVVAGEHNIEETEHTEQNRSVIRIIPHHNYNAAINKYNHDIALLELDEPLVLNSYVTPICIADKEYTNIFLKFGSGYVSGWGRVFHKGYSALVLQYLRVPLVDRATCLRSTKFRIYNNMFCAGFHEGGRDSCQGDSGGPHVTEVEGTSFLTGIISWGEECAMKGKYGIYTKVSEYVNWIKNKTKLT
- % of WT kcat/KM: 279%
- KM: 0.0805 µM
- kcat (s^-1) of FX activation by FIXa variant in the Xase complex (FVIIIa, PC/PS vesicles, Ca2+), fluorogenic FXa read-out: 9.5 s⁻¹
- kcat/KM for FX activation (Xase: FVIIIa, PC/PS vesicles, Ca2+): 1.3e+08 M⁻¹ s⁻¹

B4: FIXa-K247N/N249S/R318Y/T343R/R403E (protein)
chain 1: YNSGKLEEFVQGNLERECMEEKCSFEEAREVFENTERTTEFWKQYVDGDQCESNPCLNGGSCKDDINSYECWCPFGFEGKNCELDVTCNIKNGRCEQFCKNSADNKVVCSCTEGYRLAENQKSCEPAVPFPCGRVSVSQTSKLTR
chain 2: VVGGEDAKPGQFPWQVVLNGKVDAFCGGSIVNEKWIVTAAHCVETGVKITVVAGEHNIEETEHTEQNRSVIRIIPHHNYNAAINKYNHDIALLELDEPLVLNSYVTPICIADKEYTNIFLKFGSGYVSGWGRVFHKGYSALVLQYLRVPLVDRATCLRSTKFRIYNNMFCAGFHEGGRDSCQGDSGGPHVTEVEGTSFLTGIISWGEECAMKGKYGIYTKVSEYVNWIKEKTKLT
- % of WT kcat/KM: 84%
- KM: 0.105 µM
- kcat (s^-1) of FX activation by FIXa variant in the Xase complex (FVIIIa, PC/PS vesicles, Ca2+), fluorogenic FXa read-out: 3.7 s⁻¹
- kcat/KM for FX activation (Xase: FVIIIa, PC/PS vesicles, Ca2+): 3.9e+07 M⁻¹ s⁻¹

B5: FIXa-Y155F/K247N/N249S/R318Y/T343R/R403E (protein)
chain 1: YNSGKLEEFVQGNLERECMEEKCSFEEAREVFENTERTTEFWKQYVDGDQCESNPCLNGGSCKDDINSYECWCPFGFEGKNCELDVTCNIKNGRCEQFCKNSADNKVVCSCTEGYRLAENQKSCEPAVPFPCGRVSVSQTSKLTR
chain 2: VVGGEDAKPGQFPWQVVLNGKVDAFCGGSIVNEKWIVTAAHCVETGVKITVVAGEHNIEETEHTEQNRSVIRIIPHHNYNAAINKYNHDIALLELDEPLVLNSYVTPICIADKEYTNIFLKFGSGYVSGWGRVFHKGYSALVLQYLRVPLVDRATCLRSTKFRIYNNMFCAGFHEGGRDSCQGDSGGPHVTEVEGTSFLTGIISWGEECAMKGKYGIYTKVSEYVNWIKEKTKLT
- % of WT kcat/KM: 276%
- KM: 0.0605 µM
- kcat (s^-1) of FX activation by FIXa variant in the Xase complex (FVIIIa, PC/PS vesicles, Ca2+), fluorogenic FXa read-out: 7.5 s⁻¹
- kcat/KM for FX activation (Xase: FVIIIa, PC/PS vesicles, Ca2+): 1.3e+08 M⁻¹ s⁻¹

B6: FIXa-Y155F/K247N/N249S/R338E/E410N (protein)
chain 1: YNSGKLEEFVQGNLERECMEEKCSFEEAREVFENTERTTEFWKQYVDGDQCESNPCLNGGSCKDDINSYECWCPFGFEGKNCELDVTCNIKNGRCEQFCKNSADNKVVCSCTEGYRLAENQKSCEPAVPFPCGRVSVSQTSKLTR
chain 2: VVGGEDAKPGQFPWQVVLNGKVDAFCGGSIVNEKWIVTAAHCVETGVKITVVAGEHNIEETEHTEQNRSVIRIIPHHNYNAAINKYNHDIALLELDEPLVLNSYVTPICIADKEYTNIFLKFGSGYVSGWGRVFHKGRSALVLQYLRVPLVDRATCLESTKFTIYNNMFCAGFHEGGRDSCQGDSGGPHVTEVEGTSFLTGIISWGEECAMKGKYGIYTKVSRYVNWIKNKTKLT
- % of WT kcat/KM: 1009%
- KM: 0.0177 µM
- kcat (s^-1) of FX activation by FIXa variant in the Xase complex (FVIIIa, PC/PS vesicles, Ca2+), fluorogenic FXa read-out: 7.3 s⁻¹
- kcat/KM for FX activation (Xase: FVIIIa, PC/PS vesicles, Ca2+): 4.7e+08 M⁻¹ s⁻¹

B7: FIXa-Y155F/K247N/N249S/R318Y/T343R/R403E/E410N (protein)
chain 1: YNSGKLEEFVQGNLERECMEEKCSFEEAREVFENTERTTEFWKQYVDGDQCESNPCLNGGSCKDDINSYECWCPFGFEGKNCELDVTCNIKNGRCEQFCKNSADNKVVCSCTEGYRLAENQKSCEPAVPFPCGRVSVSQTSKLTR
chain 2: VVGGEDAKPGQFPWQVVLNGKVDAFCGGSIVNEKWIVTAAHCVETGVKITVVAGEHNIEETEHTEQNRSVIRIIPHHNYNAAINKYNHDIALLELDEPLVLNSYVTPICIADKEYTNIFLKFGSGYVSGWGRVFHKGYSALVLQYLRVPLVDRATCLRSTKFRIYNNMFCAGFHEGGRDSCQGDSGGPHVTEVEGTSFLTGIISWGEECAMKGKYGIYTKVSEYVNWIKNKTKLT
- % of WT kcat/KM: 350%
- KM: 0.0606 µM
- kcat (s^-1) of FX activation by FIXa variant in the Xase complex (FVIIIa, PC/PS vesicles, Ca2+), fluorogenic FXa read-out: 9 s⁻¹
- kcat/KM for FX activation (Xase: FVIIIa, PC/PS vesicles, Ca2+): 1.6e+08 M⁻¹ s⁻¹

B8: FIXa-Y155F/K247N/N249S/R318Y/T343R/E410N (protein)
chain 1: YNSGKLEEFVQGNLERECMEEKCSFEEAREVFENTERTTEFWKQYVDGDQCESNPCLNGGSCKDDINSYECWCPFGFEGKNCELDVTCNIKNGRCEQFCKNSADNKVVCSCTEGYRLAENQKSCEPAVPFPCGRVSVSQTSKLTR
chain 2: VVGGEDAKPGQFPWQVVLNGKVDAFCGGSIVNEKWIVTAAHCVETGVKITVVAGEHNIEETEHTEQNRSVIRIIPHHNYNAAINKYNHDIALLELDEPLVLNSYVTPICIADKEYTNIFLKFGSGYVSGWGRVFHKGYSALVLQYLRVPLVDRATCLRSTKFRIYNNMFCAGFHEGGRDSCQGDSGGPHVTEVEGTSFLTGIISWGEECAMKGKYGIYTKVSRYVNWIKNKTKLT
- % of WT kcat/KM: 668%
- KM: 0.0381 µM
- kcat (s^-1) of FX activation by FIXa variant in the Xase complex (FVIIIa, PC/PS vesicles, Ca2+), fluorogenic FXa read-out: 8.1 s⁻¹
- kcat/KM for FX activation (Xase: FVIIIa, PC/PS vesicles, Ca2+): 3.1e+08 M⁻¹ s⁻¹

B9: FIXa-Y155F/K247N/N249S/R338E/T343R/R403E (protein)
chain 1: YNSGKLEEFVQGNLERECMEEKCSFEEAREVFENTERTTEFWKQYVDGDQCESNPCLNGGSCKDDINSYECWCPFGFEGKNCELDVTCNIKNGRCEQFCKNSADNKVVCSCTEGYRLAENQKSCEPAVPFPCGRVSVSQTSKLTR
chain 2: VVGGEDAKPGQFPWQVVLNGKVDAFCGGSIVNEKWIVTAAHCVETGVKITVVAGEHNIEETEHTEQNRSVIRIIPHHNYNAAINKYNHDIALLELDEPLVLNSYVTPICIADKEYTNIFLKFGSGYVSGWGRVFHKGRSALVLQYLRVPLVDRATCLESTKFRIYNNMFCAGFHEGGRDSCQGDSGGPHVTEVEGTSFLTGIISWGEECAMKGKYGIYTKVSEYVNWIKEKTKLT
- % of WT kcat/KM: 1269%
- KM: 0.0251 µM
- kcat (s^-1) of FX activation by FIXa variant in the Xase complex (FVIIIa, PC/PS vesicles, Ca2+), fluorogenic FXa read-out: 14.6 s⁻¹
- kcat/KM for FX activation (Xase: FVIIIa, PC/PS vesicles, Ca2+): 5.9e+08 M⁻¹ s⁻¹

B10: FIXa-K247N/N249S/R338E/T343R/R403E (protein)
chain 1: YNSGKLEEFVQGNLERECMEEKCSFEEAREVFENTERTTEFWKQYVDGDQCESNPCLNGGSCKDDINSYECWCPFGFEGKNCELDVTCNIKNGRCEQFCKNSADNKVVCSCTEGYRLAENQKSCEPAVPFPCGRVSVSQTSKLTR
chain 2: VVGGEDAKPGQFPWQVVLNGKVDAFCGGSIVNEKWIVTAAHCVETGVKITVVAGEHNIEETEHTEQNRSVIRIIPHHNYNAAINKYNHDIALLELDEPLVLNSYVTPICIADKEYTNIFLKFGSGYVSGWGRVFHKGRSALVLQYLRVPLVDRATCLESTKFRIYNNMFCAGFHEGGRDSCQGDSGGPHVTEVEGTSFLTGIISWGEECAMKGKYGIYTKVSEYVNWIKEKTKLT
- % of WT kcat/KM: 1215%
- KM: 0.0263 µM
- catalytic activity (kcat/KM) for activation of FX: improved activity when combined with other mutations
- kcat (s^-1) of FX activation by FIXa variant in the Xase complex (FVIIIa, PC/PS vesicles, Ca2+), fluorogenic FXa read-out: 14.6 s⁻¹
- kcat/KM for FX activation (Xase: FVIIIa, PC/PS vesicles, Ca2+): 5.6e+08 M⁻¹ s⁻¹

B11: FIXa-K247N/N249S/R338E/T343R/E410N (protein)
chain 1: YNSGKLEEFVQGNLERECMEEKCSFEEAREVFENTERTTEFWKQYVDGDQCESNPCLNGGSCKDDINSYECWCPFGFEGKNCELDVTCNIKNGRCEQFCKNSADNKVVCSCTEGYRLAENQKSCEPAVPFPCGRVSVSQTSKLTR
chain 2: VVGGEDAKPGQFPWQVVLNGKVDAFCGGSIVNEKWIVTAAHCVETGVKITVVAGEHNIEETEHTEQNRSVIRIIPHHNYNAAINKYNHDIALLELDEPLVLNSYVTPICIADKEYTNIFLKFGSGYVSGWGRVFHKGRSALVLQYLRVPLVDRATCLESTKFRIYNNMFCAGFHEGGRDSCQGDSGGPHVTEVEGTSFLTGIISWGEECAMKGKYGIYTKVSRYVNWIKNKTKLT
- % of WT kcat/KM: 676%
- KM: 0.0275 µM
- kcat (s^-1) of FX activation by FIXa variant in the Xase complex (FVIIIa, PC/PS vesicles, Ca2+), fluorogenic FXa read-out: 7.9 s⁻¹
- kcat/KM for FX activation (Xase: FVIIIa, PC/PS vesicles, Ca2+): 3.1e+08 M⁻¹ s⁻¹

B12: FIXa-K247N/N249S/R318Y/T343R/E410N (protein)
chain 1: YNSGKLEEFVQGNLERECMEEKCSFEEAREVFENTERTTEFWKQYVDGDQCESNPCLNGGSCKDDINSYECWCPFGFEGKNCELDVTCNIKNGRCEQFCKNSADNKVVCSCTEGYRLAENQKSCEPAVPFPCGRVSVSQTSKLTR
chain 2: VVGGEDAKPGQFPWQVVLNGKVDAFCGGSIVNEKWIVTAAHCVETGVKITVVAGEHNIEETEHTEQNRSVIRIIPHHNYNAAINKYNHDIALLELDEPLVLNSYVTPICIADKEYTNIFLKFGSGYVSGWGRVFHKGYSALVLQYLRVPLVDRATCLRSTKFRIYNNMFCAGFHEGGRDSCQGDSGGPHVTEVEGTSFLTGIISWGEECAMKGKYGIYTKVSRYVNWIKNKTKLT
- % of WT kcat/KM: 439%
- KM: 0.0401 µM
- kcat (s^-1) of FX activation by FIXa variant in the Xase complex (FVIIIa, PC/PS vesicles, Ca2+), fluorogenic FXa read-out: 6.1 s⁻¹
- kcat/KM for FX activation (Xase: FVIIIa, PC/PS vesicles, Ca2+): 2e+08 M⁻¹ s⁻¹
